Laboratory results: IntAct's records for PubMed 11743162

B1: Protein BZZ1 (Saccharomyces cerevisiae), P38822 (parent)
chain: MSADLSIGNEIKDSFKETHKWVQNNLKWLKDIEQFYRERAKLEKDYSERLSRLSAEYFNKKSSTSVPISVGDTPTTTPGSIEAAGVVAWNEILSQTDMISKDHDQLSTDFENHVANQLSGLFTKLDMTLSKINGFNNDMVNKKDNIYHELEKAKKDYDEACSTMEMARNRYTKASNDRNKKKLDEKEMEMNKCKNEYLIKINQANRTKDKYYFQDVPEVLDLLQDVNEAKTLFLNDLWLKAASVENDLGANVSKRLQAANSVVKQNKPSLNTAIFIKHNLKNWKEPQDFVYKPSPVWHDDEKFAVPSSLEVEDLRIKLAKAENDYNSLQDKTQNELSKLSTLNKIKHEMKTNEDNINATKFYDTLKEYLNVVSPFTSHETLKLQAEVQIESIQNNVPEEYDLSTDNIDLSKTKKKSGIFSKFKHNILNVDSKPSSGGSTGNGNGGPLHITSLFNTSRRTRLGSAPNNAGEDSDNNSIRTTSTNNTKKTTQNSSDDGKNKVLYAYVQKDDDEITITPGDKISLVARDTGSGWTKINNDTTGETGLVPTTYIRISSAATVKANDRGPAPEVPPPRRSTLPVRTMEAIYAYEAQGDDEISIDPGDIITVIRGDDGSGWTYGECDGLKGLFPTSYCK
B2: High osmolarity signaling protein SHO1 (Saccharomyces cerevisiae), P40073 (parent)
chain: MSISSKIRPTPRKPSRMATDHSFKMKKFYADPFAISSISLAIVSWVIAIGGSISSASTNESFPRFTWWGIVYQFLIICSLMLFYCFDLVDHYRIFITTSIAVAFVYNTNSATNLVYADGPKKAAASAGVILLSIINLIWILYYGGDNASPTNRWIDSFSIKGIRPSPLENSLHRARRRGNRNTTPYQNNVYNDAIRDSGYATQFDGYPQQQPSHTNYVSSTALAGFENTQPNTSEAVNLHLNTLQQRINSASNAKETNDNSNNQTNTNIGNTFDTDFSNGNTETTMGDTLGLYSDIGDDNFIYKAKALYPYDADDDDAYEISFEQNEILQVSDIEGRWWKARRANGETGIIPSNYVQLIDGPEEMHR
B3: Protein BZZ1 (Saccharomyces cerevisiae), P38822 (parent)
chain: B1 chain
partner: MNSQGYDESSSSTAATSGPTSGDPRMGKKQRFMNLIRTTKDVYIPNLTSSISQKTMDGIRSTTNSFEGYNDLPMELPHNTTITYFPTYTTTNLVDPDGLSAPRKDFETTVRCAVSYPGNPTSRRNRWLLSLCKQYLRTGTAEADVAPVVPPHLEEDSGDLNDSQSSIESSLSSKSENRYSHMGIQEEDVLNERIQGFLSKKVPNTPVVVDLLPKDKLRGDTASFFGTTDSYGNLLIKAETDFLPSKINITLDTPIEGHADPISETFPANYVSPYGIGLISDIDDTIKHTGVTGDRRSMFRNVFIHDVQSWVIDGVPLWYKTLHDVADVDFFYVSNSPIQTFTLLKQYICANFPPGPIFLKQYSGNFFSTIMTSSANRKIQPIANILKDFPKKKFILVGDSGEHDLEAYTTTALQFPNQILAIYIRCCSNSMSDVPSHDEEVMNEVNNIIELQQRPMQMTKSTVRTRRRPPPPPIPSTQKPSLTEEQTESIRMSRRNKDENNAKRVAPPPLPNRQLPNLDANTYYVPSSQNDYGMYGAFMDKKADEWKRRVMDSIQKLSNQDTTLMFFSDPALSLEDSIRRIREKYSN

Variants of: B1
Settings: with las17_yeast LAS17, Q12446
Target sequence in this assay (Q12446 whole entry): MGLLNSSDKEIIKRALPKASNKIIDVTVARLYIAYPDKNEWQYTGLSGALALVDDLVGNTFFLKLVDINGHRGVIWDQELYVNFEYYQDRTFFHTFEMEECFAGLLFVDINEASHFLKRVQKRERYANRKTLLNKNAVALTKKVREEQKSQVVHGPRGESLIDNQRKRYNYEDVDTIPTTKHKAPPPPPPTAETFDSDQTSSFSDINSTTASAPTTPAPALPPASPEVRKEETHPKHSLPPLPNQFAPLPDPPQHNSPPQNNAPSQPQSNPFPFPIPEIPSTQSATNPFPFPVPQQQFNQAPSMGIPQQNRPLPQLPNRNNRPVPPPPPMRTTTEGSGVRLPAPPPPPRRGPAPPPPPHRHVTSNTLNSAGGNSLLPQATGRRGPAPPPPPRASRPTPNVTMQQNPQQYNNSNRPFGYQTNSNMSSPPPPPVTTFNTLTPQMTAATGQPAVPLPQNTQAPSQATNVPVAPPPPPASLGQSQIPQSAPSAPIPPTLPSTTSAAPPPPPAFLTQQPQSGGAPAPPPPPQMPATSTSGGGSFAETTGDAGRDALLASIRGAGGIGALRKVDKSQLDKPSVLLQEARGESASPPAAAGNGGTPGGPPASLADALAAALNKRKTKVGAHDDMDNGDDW

**Q.** W531S was tested. Which “effect of a mutation on the interaction” value did it give?
**A.** decreasing interaction

**Q.** W531S;W615S was tested. Which “effect of a mutation on the interaction” value did it give?
**A.** decreasing interaction

**Q.** For W615S, which “effect of a mutation on the interaction” value is on record?
**A.** decreasing interaction

Variants of: B2
Settings: with las17_yeast LAS17, Q12446
Target sequence in this assay (Q12446 whole entry): as above

**Q.** How did the “effect of a mutation on the interaction” value turn out when P352A was run?
**A.** decreasing interaction

Variants of: B3
Settings: with app1_yeast APP1, P53933

**Q.** For W531S;W615S, which “effect of a mutation on the interaction” value is on record?
**A.** decreasing interaction
